Assay results from patent US20140155331A1 (COUNCIL OF SCIENTIFIC AND INDUSTRIAL RESEARCH, published 2014).
Where no end group is shown, it is not given here. [ ]: non-standard residue; d: D form. fluorescein = N-terminal 5(6)-carboxyfluorescein label; Aib = CC(C)(N)C(=O)O; Ahx = NCCCCCC(=O)O

T1: S100B
T1 chain: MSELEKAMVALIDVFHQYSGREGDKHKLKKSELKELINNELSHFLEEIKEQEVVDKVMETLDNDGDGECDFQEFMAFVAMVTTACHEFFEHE

B1: pBM-TRTK (Aib substituted TRTK monomer peptide) (peptide)
peptide: fluorescein-TRTKIDW[Aib]KIL[Aib]GGGCG-NH2
notes: The peptide is derived from TRTK-12 (CapZ residues 265-276) with Aib at N8 and S12; also called pBM-TRK
B2: pBBD-TRTK (branched dimeric Aib substituted TRTK) (peptide)
peptide: TRTKIDW[Aib]KIL[Aib]KAH[Ahx]
chain: Lys-NH2
modifications: also: branched dimer: two identical arms on one branching Lys (chain 2)
notes: This is a branched peptide with two identical arms on one lysine; also called bivalent helically branched peptide

Columns and labels:
S100B [1] = biological target: T1, S100B; test: fluorescence anisotropy, N-terminal fluorescein labeled peptide
S100B [2] = biological target: T1, S100B; test: fluorescence anisotropy; 5 nM fluorescein labeled peptide titrated with S100B in 50 mM Tris-HCl pH 7.5, 50 mM NaCl, 10 mM CaCl2, 25 C

Binder	Kd (S100B [1]) [µM]	Kd (S100B [2]) [µM]
B1	~0.3	–
B2	–	0.0077
